Experimental findings from patent US20210395716 are described below.

In the series the target is β-amyloid peptide (1-42) (UniProt P05067).
Sequence of β-amyloid peptide (1-42) (P05067 whole entry, looked up, tested part not stated): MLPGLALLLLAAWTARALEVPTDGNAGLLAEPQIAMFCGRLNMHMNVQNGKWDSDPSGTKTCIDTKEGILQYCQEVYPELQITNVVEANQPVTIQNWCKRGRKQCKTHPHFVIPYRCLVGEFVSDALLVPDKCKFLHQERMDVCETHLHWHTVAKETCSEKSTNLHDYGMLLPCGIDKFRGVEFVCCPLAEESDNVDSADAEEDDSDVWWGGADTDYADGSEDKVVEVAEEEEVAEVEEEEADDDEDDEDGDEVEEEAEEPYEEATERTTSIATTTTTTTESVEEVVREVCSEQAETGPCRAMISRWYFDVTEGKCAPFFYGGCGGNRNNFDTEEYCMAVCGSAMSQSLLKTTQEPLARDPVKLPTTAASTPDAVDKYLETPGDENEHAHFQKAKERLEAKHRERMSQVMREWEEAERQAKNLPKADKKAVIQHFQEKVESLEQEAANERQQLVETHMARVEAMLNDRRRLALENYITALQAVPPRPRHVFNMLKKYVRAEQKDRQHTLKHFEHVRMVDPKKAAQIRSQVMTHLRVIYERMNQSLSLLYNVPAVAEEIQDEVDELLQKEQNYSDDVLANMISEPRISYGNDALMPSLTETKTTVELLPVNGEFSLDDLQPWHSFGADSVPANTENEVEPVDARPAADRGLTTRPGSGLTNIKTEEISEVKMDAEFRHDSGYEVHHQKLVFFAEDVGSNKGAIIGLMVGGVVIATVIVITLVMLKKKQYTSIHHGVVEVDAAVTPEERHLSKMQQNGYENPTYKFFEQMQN

Substance yeast NEP (yNEP) yielded an Abeta HPLC, per hr. (sample yNEP) of 0.46 per hr; an Abeta HPLC, rate (sample yNEP) (million sq unt/min) of 0.0137; an Abeta HPLC, units/µL (sample yNEP) of 0.0274 units/µL; an Abeta HPLC, units/µg (sample yNEP) of 0.008 units/µg.
